This passage reports STAT3 phosphorylation in mouse splenocytes (Western blot), concentration giving equal signal results from patent US20130316404A1.

This assay has as its target IL-10 receptor (IL-10R) on mouse splenocytes (mouse) (UniProt Q61727). As to the kind of experiment: cell-based or functional assay.
Chain of UniProt Q61727 (Q61727 17-575): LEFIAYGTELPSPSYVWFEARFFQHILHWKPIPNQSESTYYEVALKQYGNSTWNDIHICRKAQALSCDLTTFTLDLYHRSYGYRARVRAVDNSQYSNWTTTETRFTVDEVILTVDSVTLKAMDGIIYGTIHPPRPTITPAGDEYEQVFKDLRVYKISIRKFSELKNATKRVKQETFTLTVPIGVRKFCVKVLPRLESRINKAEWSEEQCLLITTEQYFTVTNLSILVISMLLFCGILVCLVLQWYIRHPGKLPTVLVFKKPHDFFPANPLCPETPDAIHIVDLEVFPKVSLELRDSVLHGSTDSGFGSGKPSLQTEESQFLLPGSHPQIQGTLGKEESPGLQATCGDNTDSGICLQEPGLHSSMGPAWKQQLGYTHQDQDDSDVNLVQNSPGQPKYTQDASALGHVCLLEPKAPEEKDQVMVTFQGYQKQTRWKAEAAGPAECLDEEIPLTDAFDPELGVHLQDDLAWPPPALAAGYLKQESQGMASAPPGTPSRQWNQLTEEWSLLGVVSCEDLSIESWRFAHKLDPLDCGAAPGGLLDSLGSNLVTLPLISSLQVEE

“stabilized recombinant IL-10 dimer (two wildtype murine IL-10 monomers joined C-terminus to N-terminus by a 7 amino acid peptide linker, one continuous polypeptide) (from UniProt P18893 19-178) (ligand)” registered an STAT3 phosphorylation in mouse splenocytes (Western blot), concentration giving equal signal of 10 ng/mL.

Turning to “recombinant wildtype mouse IL-10 expressed in human HEK293 cells (from UniProt P18893 19-178) (ligand)”, the STAT3 phosphorylation in mouse splenocytes (Western blot), concentration giving equal signal turned out to be 100 ng/mL.
